According to IntAct's records for PubMed 23858060:

B1: Galactose/lactose metabolism regulatory protein GAL80 (Saccharomyces cerevisiae), P04387 (parent)
chain: MDYNKRSSVSTVPNAAPIRVGFVGLNAAKGWAIKTHYPAILQLSSQFQITALYSPKIETSIATIQRLKLSNATAFPTLESFASSSTIDMIVIAIQVASHYEVVMPLLEFSKNNPNLKYLFVEWALACSLDQAESIYKAAAERGVQTIISLQGRKSPYILRAKELISQGYIGDINSIEIAGNGGWYGYERPVKSPKYIYEIGNGVDLVTTTFGHTIDILQYMTSSYFSRINAMVFNNIPEQELIDERGNRLGQRVPKTVPDHLLFQGTLLNGNVPVSCSFKGGKPTKKFTKNLVIDIHGTKGDLKLEGDAGFAEISNLVLYYSGTRANDFPLANGQQAPLDPGYDAGKEIMEVYHLRNYNAIVGNIHRLYQSISDFHFNTKKIPELPSQFVMQGFDFEGFPTLMDALILHRLIESVYKSNMMGSTLNVSNISHYSL
partner: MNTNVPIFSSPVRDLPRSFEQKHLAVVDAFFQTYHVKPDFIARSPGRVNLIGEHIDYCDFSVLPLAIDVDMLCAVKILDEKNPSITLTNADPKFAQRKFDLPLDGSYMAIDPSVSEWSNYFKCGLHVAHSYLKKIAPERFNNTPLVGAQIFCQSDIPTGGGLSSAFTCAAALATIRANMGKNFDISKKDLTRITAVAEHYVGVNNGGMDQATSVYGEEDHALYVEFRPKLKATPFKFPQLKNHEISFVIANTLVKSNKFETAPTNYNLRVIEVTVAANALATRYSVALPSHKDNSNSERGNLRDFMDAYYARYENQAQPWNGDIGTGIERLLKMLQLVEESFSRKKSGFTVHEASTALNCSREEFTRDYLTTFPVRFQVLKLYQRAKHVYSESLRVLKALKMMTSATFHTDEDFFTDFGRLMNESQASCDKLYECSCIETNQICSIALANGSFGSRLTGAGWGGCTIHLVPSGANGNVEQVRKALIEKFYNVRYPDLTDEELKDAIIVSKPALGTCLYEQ

Variants of: B1
Details: with gal3_yeast GAL3, P13045

| Variant | effect of a mutation on the interaction |
| --- | --- |
| E351K | with no effect |
